Laboratory results taken from patent US20260227386A1, “DIAGNOSIS AND TREATMENT OF NEUROGENIC HETEROTOPIC OSSIFICATION” (SERVIZO GALEGO DE SAÚDE, priority 2023, published 2026).

Key:
[1] = system: SaOS2 cells; test: Inflammatory stimuli (IL1β, LPS) on SaOS2 differentiated with ACM, RT-PCR; assay type: cell-based, Human
Method: To determine the effect of an external inflammatory factor on the differentiation process of SaOS2 stimulated with ACM, SaOS2 cells were seeded and stimulated with the ACM in the presence and absence of 0.1 ng/ml of IL1 and 100 ng/mL of lipopolysaccharide (LPS). To do this, once the SaOS2 completed the 3-day differentiation with the ACM, these cells were treated with the inflammatory stimuli and were differentiated for a further 48h.
(§1) RNA was extracted using TriReagent® and the RNA extraction Kit E.Z.N.A. Total RNA Kit I® (Omega Bio-Tek Inc., Norcross, GA, USA) following the manufacturer's instructions. The gene expression of bone related markers, inflammatory and adipogenic markers were measured using iTaq Universal SYBR Green Supermix (BioRad Laboratories, Hercules, CA, USA). Relative quantitation was performed using the ΔΔCt Comparative Method. Results are expressed as 2^−ΔΔCt versus unstimulated control or DM.

[2] = system: C3H10T1/2 cells; test: C3H10T1/2 differentiation into adipocytes, gene expression by RT-PCR; assay type: cell-based; conditions: C3H10T1/2 differentiated into adipocytes seven days
Method: (§2) SaOS2 were differentiated for 3 days, C3H10T1/2 for 7 days, and ATDC5 for 14 days. In order to induce cell differentiation, the media were changed three times a week in SaOS2 and ATDC5 cells, starting the process 24 h post-culture. In these cells, the same medium was used in all the changes made. Regarding the C3H10T1/2, two media were used to differentiate them into adipocytes: the induction medium which was changed after 6 h post-culture, and the maintenance medium which replaced the induction medium after 4 days. after culture. All cells were seeded in 24-well plates (Thermo Fisher Scientific, Waltham, MA, USA).
Regarding the C3H10T1/2, due to the difference in the composition of their differentiation media and that of the SaOS2, we proceeded with the concentration and purification of the 2 mL DM and ACM proteins, using the filter units 3 kDa Amicon® Ultra-0.5 mL Centrifugal Filters Ultracel 3K (Millipore, Burlington, Massachusetts, USA) following the supplier's instructions. Once the process was finished, the pellets were resuspended in the differentiation medium corresponding to the cell line, filtered through a 0.2 μm filter (Thermo Fisher Scientific, Wlatham, MA, USA), and cells were differentiated for 7 days as was previously described. For cell differentiation stimulated with the NCM, NCM was concentrated using Amicon® Ultra-0.5 mL Centrifugal Filters Ultracel 3K 3 kDa centrifugal filter units, according to the supplier's specifications. Then, they were resuspended with the C3H10T1/2 differentiation medium and filtered through a 0.2 μm filter. Finally, C3H10T1/2 cells were differentiated into adipocytes in the presence and absence of NCM for 7 days, as previously described.
(§3) SaOS2, C3H10T1/2, and ATDC5 cells were differentiated in the presence or absence of 3 μg/mL of human recombinant protein transforming growth factor beta-induced (TGFβi), similar concentration to TGFβi-blood levels. It should be noted that this protein was added newly in every medium change corresponding to the differentiation of each cell line.
as §1

[3] = system: ATDC5 cells; test: ATDC5 differentiation into chondrocytes, gene expression by RT-PCR; assay type: cell-based; conditions: TGFβi 3 μg/mL
Method: as §2, §3, §1

[4] = system: C3H10T1/2 cells; test: RNA quantification and cell counting; assay type: cell-based; conditions: C3H10T1/2 differentiated to adipocytes seven days, TGFβi 3 μg/mL
Description: The RNA of the differentiated C3H10T1/2 was quantified using a NanoDrop One® spectrophotometer (Thermo Fisher Scientific, Wlatham, MA, USA).
Moreover, microscopic photos of the different conditions were taken. Subsequently, the photograph was divided into 3 rectangles of equal size and positioned in the same place in the images. The live cells were counted, and the number of cells was compared with the rest of the samples.

[5] = system: SaOS2 cells; test: SaOS2 differentiation into osteoblasts, gene expression by RT-PCR; assay type: cell-based, Human; conditions: SaOS2 differentiated into osteoblasts three days, presence or absence of stimulus (ACM; TGFβi 3 μg/mL)
Method: as §2
After 24 h SaOS2 post-culture, the medium was changed to ACM, and they were differentiated for 3 days.
as §3, §1

[6] = SaOS2 differentiated three days with ACM, then IL1β 0.1 ng/mL for 48h
[7] = presence or absence of stimulus (ACM; NCM; TGFβi 3 μg/mL)
[8] = ATDC5 differentiated into chondrocytes three, seven, fourteen days

IL1β: inflammatory stimulus, 0.1 ng/ml
BMP2 gene expression induced by ACM [1, 6]: increased | CCL2 gene expression [1, 6]: increased | IL6 gene expression [1, 6]: increased | LIF gene expression induced by ACM [1, 6]: increased | SPP1 gene expression [1, 6]: did not modify | VCAM gene expression [1, 6]: increased

lipopolysaccharide [LPS]
inflammatory profile or bone metabolism ([1]; SaOS2 differentiated three days with or without ACM, then LPS 100 ng/ml for 48h): did not alter

B1: TGFβi: human recombinant protein transforming growth factor beta-induced, used at 3 μg/mL (protein)
chain: GPAKSPYQLVLQHSRLRGRQHGPNVCAVQKVIGTNRKYFTNCKQWYQRKICGKSTVISYECCPGYEKVPGEKGCPAALPLSNLYETLGVVGSTTTQLYTDRTEKLRPEMEGPGSFTIFAPSNEAWASLPAEVLDSLVSNVNIELLNALRYHMVGRRVLTDELKHGMTLTSMYQNSNIQIHHYPNGIVTVNCARLLKADHHATNGVVHLIDKVISTITNNIQQIIEIEDTFETLRAAVAASGLNTMLEGNGQYTLLAPTNEAFEKIPSETLNRILGDPEALRDLLNNHILKSAMCAEAIVAGLSVETLEGTTLEVGCSGDMLTINGKAIISNKDILATNGVIHYIDELLIPDSAKTLFELAAESDVSTAIDLFRQAGLGNHLSGSERLTLLAPLNSVFKDGTPPIDAHTRNLLRNHIIKDQLASKYLYHGQTLETLGGKKLRVFVYRNSLCIENSCIAAHDKRGRYGTLFTMDRVLTPPMGTVMDVLKGDNRFSMLVAAIQSAGLTETLNREGVYTVFAPTNEAFRALPPRERSRLLGDAKELANILKYHIGDEILVSGGIGALVRLKSLQGDKLEVSLKNNVVSVNKEPVAEPDIMATNGVVHVITNVLQPPANRPQERGDELADSALEIFKQASAFSRASQRSVRLAPVYQKLLERMKH
ADIPOQ gene expression [2, 7]: reduced | AXIN2 gene expression [2, 7]: no modifications | CCL2 gene expression [2, 7]: no modifications | CD44 gene expression [2, 7]: increase | FABP4 gene expression [2, 7]: reduced | GPNMB gene expression [2, 7]: no modifications | IL6 gene expression [2, 7]: no modifications | PLIN2 gene expression [2, 7]: reduced | PPARG gene expression [2, 7]: reduction was statistically significant | RUNX2 gene expression [2, 7]: increase | SPP1 gene expression [2, 7]: increase | VCAM gene expression [2, 7]: increase | PPARG gene expression ([2]; presence or absence of stimulus (ACM; NCM; TGFβi 3 μg/mL), listed as TGFBi): significantly decreased | TGFβi gene expression ([2]; presence or absence of stimulus (ACM; TGFβi 3 μg/mL)): increase | COL2A1 gene expression [3, 8]: decrease | COLX gene expression [3, 8]: decrease | SOX9 gene expression [3, 8]: decrease | SPP1 expression ([3]; early stages of ATDC5 differentiation): increased | cell proliferation: amount of RNA [4]: increase | cell proliferation: number of cells [4]: increase | cell proliferation: amount of RNA ([4]; listed as TGFBi): differences on cell proliferation were observed | cell proliferation: number of cells ([4]; listed as TGFBi): differences on cell proliferation were observed | AXIN2 gene expression [5]: did not modify | BMP2 gene expression [5]: increased | BMP4 gene expression [5]: did not modify | CCL2 gene expression [5]: increased | CD44 gene expression [5]: did not modify | GPNMB gene expression [5]: did not modify | LIF gene expression [5]: did not modify | OPG gene expression [5]: did not modify | PDGFRβ gene expression [5]: did not modify | PDGFβ gene expression [5]: did not modify | RANKL gene expression [5]: did not modify | RANKL/OPG ratio [5]: did not modify | RUNX2 gene expression [5]: did not modify | SPP1 gene expression [5]: increased | TGFβi gene expression [5]: increased | VCAM gene expression [5]: increased | BMP2 gene expression ([5]; listed as TGFBi recombinant): partial recapitulation | CCL2 gene expression ([5]; listed as TGFBi recombinant): partial recapitulation | SPP1 gene expression ([5]; listed as TGFBi recombinant): partial recapitulation | VCAM gene expression ([5]; listed as TGFBi recombinant): partial recapitulation
